Assay results taken from PMC10546719.

Assays:
[1] = molecular target: syndecan-1 (human (endogenous in Caco-2)) (UniProt P18827)
[2] = molecular target: syndecan-1 (human (endogenous in Caco-2)) (UniProt P18827); remark: listed apart in the source

Chain of UniProt P18827 (P18827 23-310): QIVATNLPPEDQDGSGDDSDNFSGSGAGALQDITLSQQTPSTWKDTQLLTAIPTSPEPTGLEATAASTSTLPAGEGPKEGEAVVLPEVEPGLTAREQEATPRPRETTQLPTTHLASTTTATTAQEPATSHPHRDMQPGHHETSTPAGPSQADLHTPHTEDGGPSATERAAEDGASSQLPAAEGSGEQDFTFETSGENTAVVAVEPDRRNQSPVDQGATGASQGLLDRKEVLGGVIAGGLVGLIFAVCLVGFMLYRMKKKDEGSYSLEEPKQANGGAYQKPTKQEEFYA

Substance: recombinant Trichinella spiralis C-type lectin with GST tag (GST-rTsCTL) (natural protein)
- reduction of the rTsCTL (10 µg/mL) promotion of larval invasion of Caco-2 cells by 2.5-20 mM β-xyloside [1]: 46.8%
- inhibition of the rTsCTL (10 µg/mL) promotion of larval invasion of Caco-2 cells by 2.5-20 µM Stattic [2]: 49.3%
